This is an account of results in patent publication US20030113325A1 (CHILDREN S MEDICAL CENTER, published 2003).

In experiment [1] the target is T1, Nogo-66 receptor (NgR), full-length, expressed on transfected cells (human, UniProt Q9BZR6 27-447).
T1 construct: whole, on cells; The species of the NgR on the CHO cells is not restated; also called Nogo receptor
T1 sequence (looked up): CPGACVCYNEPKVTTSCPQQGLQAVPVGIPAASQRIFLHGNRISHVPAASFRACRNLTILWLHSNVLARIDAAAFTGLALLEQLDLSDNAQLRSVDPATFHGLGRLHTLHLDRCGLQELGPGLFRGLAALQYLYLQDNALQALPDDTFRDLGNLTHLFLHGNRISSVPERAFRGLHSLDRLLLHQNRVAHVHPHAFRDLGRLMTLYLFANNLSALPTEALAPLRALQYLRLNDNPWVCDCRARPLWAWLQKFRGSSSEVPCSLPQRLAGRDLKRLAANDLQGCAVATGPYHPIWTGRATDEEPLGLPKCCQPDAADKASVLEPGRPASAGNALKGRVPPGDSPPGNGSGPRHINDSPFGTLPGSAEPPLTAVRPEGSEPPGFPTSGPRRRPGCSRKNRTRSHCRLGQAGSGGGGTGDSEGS
The experiment in a line: saturation analysis of AP-OMgp binding to N2A cells transfected with NgR cDNA, bound AP activity. The source says:
(§1) We next took advantage of AP-OMgp binding to identify cell surface OMgp-binding proteins by expression cloning (He & Tessier-Lavigne, 1997; Flanagan and Cheng, 2000; Fournier et al., 2001). Pools of a complementary DNA expression library from adult human brain, representing approximately 250,000 independent clones, were transfected into COS-7 cells and screened for the presence of cells that bound AP-OMgp. […] After screening several rounds of subpools, we isolated two cDNAs that encoded the OMgp-binding proteins. […] We next performed coimmunoprecipitation experiments by incubating GST or a GST-NgR fusion protein containing the entire extracellular domain of NgR (GST-NgR) with AP or AP-OMgp.
Cell surface binding and expression cloning were performed as described previously (He and Tessier-Lavigne, 1997). To detect AP-OMgp binding, cultures were washed with binding buffer (Hanks balanced salt solution containing 20 mM Hepes, pH 7.5, and 1 mg/ml bovine serum albumin (BSA)). The plates were then incubated with AP-OMgp-containing binding buffer for 75 min at room temperature. After extensive washing and heat inactivation, bound AP fusion proteins were detected by AP staining using NBT and BCIP as substrate. For saturation analysis, we disrupted cells and detected bound AP fusion proteins using […] as substrate.

In another experiment the target is T2, AP (UniProt P05187 23-511, limits assumed).
T2 construct: Control in the coimmunoprecipitation; also called alkaline phosphatase; AP alone
T2 sequence (P05187 23-511 limits assumed): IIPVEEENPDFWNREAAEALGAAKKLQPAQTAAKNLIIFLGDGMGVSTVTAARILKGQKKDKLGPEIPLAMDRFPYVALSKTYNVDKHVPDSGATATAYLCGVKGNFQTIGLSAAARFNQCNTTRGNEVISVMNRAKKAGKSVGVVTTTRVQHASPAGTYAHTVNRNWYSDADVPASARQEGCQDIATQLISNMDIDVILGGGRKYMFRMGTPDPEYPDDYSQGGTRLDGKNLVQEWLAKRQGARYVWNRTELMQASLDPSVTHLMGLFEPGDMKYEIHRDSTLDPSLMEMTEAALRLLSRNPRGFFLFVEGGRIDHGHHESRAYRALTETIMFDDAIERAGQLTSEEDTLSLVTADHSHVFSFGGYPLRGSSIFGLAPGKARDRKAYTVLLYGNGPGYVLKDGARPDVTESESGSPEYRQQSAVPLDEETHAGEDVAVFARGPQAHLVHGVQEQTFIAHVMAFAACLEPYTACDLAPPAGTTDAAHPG
In words: coimmunoprecipitation of GST or GST-NgR with AP or AP-OMgp.
Source text: as §1

B1: AP-OMgp fusion protein (ligand, mouse, UniProt Q63912 25-417, looked up)
chain: ICPLQCTCTERHRHVDCSGRNLTTLPPGLQENIIHLNLSYNHFTDLHNQLTPYTNLRTLDISNNRLESLPAQLPRSLWNMSAANNNIKLLDKSDTAYQWNLKYLDVSKNMLEKVVLIKNTLRSLEVLNLSSNKLWTVPTNMPSKLHIVDLSNNSLTQILPGTLINLTNLTHLYLHNNKFTFIPEQSFDQLLQLQEITLHNNRWSCDHKQNITYLLKWVMETKAHVIGTPCSKQVSSLKEQSMYPTPPGFTSSLFTMSEMQTVDTINSLSMVTQPKVTKTPKQYRGKETTFGVTLSKDTTFSSTDRAVVAYPEDTPTEMTNSHEAAAATLTIHLQDGMSSNASLTSATKSPPSPVTLSIARGMPNNFSEMPRQSTTLNLRREETTANGNTRPPS
notes: Secreted from COS-7 cells and purified on nickel-agarose; about 180 kDa; The order of the parts follows the name AP-OMgp; not shown: alkaline phosphatase (AP) reporter of expression vector AP-5 (Flanagan and Cheng, 2000)
In the case of B1, the affinity in experiment [1], expressed as Kd, was 5 nM.

B2: GST-NgR fusion protein containing the entire extracellular domain of NgR (receptor, UniProt Q9BZR6 27-447, looked up)
chain: T1 sequence (looked up)
notes: extracellular domain; not shown: glutathione S-transferase (GST) fusion partner
Consider B2, for which the binding result in the experiment with AP is “no binding”.

Usually Kd stands for the concentration at which binding is half-saturated. Read a low Kd as a tighter complex.
